Like-named read-outs stand apart in the source and are kept apart here. Values belong to the molecule of their own block, whether it stands above or below them.
How the values were obtained:
[1] = molecular target: taxol-stabilized microtubules (porcine brain tubulin) (porcine) (UniProt P02550); assay: co-sedimentation
[2] = molecular target: taxol-stabilized microtubules (porcine brain tubulin) (porcine) (UniProt P02550); assay: co-sedimentation; remark: listed apart in the source

- stoichiometry N (mol per mol of tubulin) [1]: 0.85
Molecule: ICR2-His6 (from UniProt Q9ZQC5 56-583) (natural protein)

- stoichiometry N (mol per mol of tubulin) [1]: 0.4
- stoichiometry N (mol per mol of tubulin) [2]: 0.35
B1: ICR1-His6 (natural protein)
chain: MPRPRVSELSQRQAPRLRSSSSTSDSNHSNRLITTDQSFKPGVDRKSPRSGGPNSDPLGQKKLGGRISDLESQLGQAQEELRLLKEQLANAEAVKKQAQDELHKKSKKPNPLARVEESATEAERIDRDEIPGDVQKETDVFEVPVEKIAVEEEELRSGNDEAEKLVAKEDEIKMLKARLYDMEKEHESLGKENESLKNQLSDSASEISNVKANEDEMVSKVSRIGEELEESRAKTAHLKEKLESMEEAKDALEAEMKKLRVQTEQWRKAADAAAAVLSGEFEMNGRDRSGSTEKYYAGGFFDPSAGFMDPPGMADDYDDGLGSGKRKSSGMKMFGELWRKKGQK

Reference: publication doi:10.1101/2021.01.08.425872
